Assay results published in patent US20250313634A1 (WUXI BIOLOGICS SHANGHAI, published 2025).

Tests used:
Assay in all cases: capture ELISA on coated 1.14.4; relative to silent alanine substitutions
[1] = biological target: T1, hPD-L1_ECD.His point mutant A121G (human, UniProt Q9NZQ7 19-238)
T1 construct: extracellular domain
Method in brief: (§1)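 Capture ELISA in which supernatant containing quantified PD-L1 alanine mutant was detected with HRP anti-His antibody. Absorbance was normalized to the average of control mutants. Epitope residues were called at binding fold change <0.55.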

[2] = biological target: T2, hPD-L1_ECD.His point mutant E205A (human, UniProt Q9NZQ7 19-238)
T2 construct: extracellular domain
T2 sequence (Q9NZQ7 19-238 E205A): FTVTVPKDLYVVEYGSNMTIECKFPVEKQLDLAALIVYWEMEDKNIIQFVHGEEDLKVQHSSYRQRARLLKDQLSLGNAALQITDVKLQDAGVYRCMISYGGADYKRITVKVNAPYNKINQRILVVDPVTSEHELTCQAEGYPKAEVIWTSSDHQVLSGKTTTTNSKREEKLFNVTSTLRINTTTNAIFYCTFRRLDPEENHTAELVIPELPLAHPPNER
Method in brief: as §1

[3] = biological target: T3, hPD-L1_ECD.His point mutant T181A (human, UniProt Q9NZQ7 19-238)
T3 construct: extracellular domain
T3 sequence (Q9NZQ7 19-238 T181A): as the sequence (Q9NZQ7 19-238 E205A) above, with T163A, A187E counted along it
Method in brief: as §1

[4] = biological target: T4, hPD-L1_ECD.His point mutant T22A (human, UniProt Q9NZQ7 19-238)
T4 construct: extracellular domain
T4 sequence (Q9NZQ7 19-238 T22A): as the sequence (Q9NZQ7 19-238 E205A) above, with T4A, A187E counted along it
Method in brief: as §1

[5] = biological target: T5, hPD-L1_ECD.His point mutant Q91A (human, UniProt Q9NZQ7 19-238)
T5 construct: extracellular domain
T5 sequence (Q9NZQ7 19-238 Q91A): as the sequence (Q9NZQ7 19-238 E205A) above, with Q73A, A187E counted along it
Method in brief: as §1

[6] = biological target: T6, hPD-L1_ECD.His point mutant P161A (human, UniProt Q9NZQ7 19-238)
T6 construct: extracellular domain
T6 sequence (Q9NZQ7 19-238 P161A): as the sequence (Q9NZQ7 19-238 E205A) above, with P143A, A187E counted along it
Method in brief: as §1

[7] = biological target: T7, hPD-L1_ECD.His point mutant K189A (human, UniProt Q9NZQ7 19-238)
T7 construct: extracellular domain
T7 sequence (Q9NZQ7 19-238 K189A): as the sequence (Q9NZQ7 19-238 E205A) above, with K171A, A187E counted along it
Method in brief: as §1

[8] = biological target: T8, hPD-L1_ECD.His point mutant V44A (human, UniProt Q9NZQ7 19-238)
T8 construct: extracellular domain
T8 sequence (Q9NZQ7 19-238 V44A): as the sequence (Q9NZQ7 19-238 E205A) above, with V26A, A187E counted along it
Method in brief: as §1

[9] = biological target: T9, hPD-L1_ECD.His point mutant N35A (human, UniProt Q9NZQ7 19-238)
T9 construct: extracellular domain
T9 sequence (Q9NZQ7 19-238 N35A): as the sequence (Q9NZQ7 19-238 E205A) above, with N17A, A187E counted along it
Method in brief: as §1

[10] = biological target: T10, hPD-L1_ECD.His point mutant D73A (human, UniProt Q9NZQ7 19-238)
T10 construct: extracellular domain
T10 sequence (Q9NZQ7 19-238 D73A): as the sequence (Q9NZQ7 19-238 E205A) above, with D55A, A187E counted along it
Method in brief: as §1

[11] = biological target: T11, hPD-L1_ECD.His point mutant K124A (human, UniProt Q9NZQ7 19-238)
T11 construct: extracellular domain
T11 sequence (Q9NZQ7 19-238 K124A): as the sequence (Q9NZQ7 19-238 E205A) above, with K106A, A187E counted along it
Method in brief: as §1

[12] = biological target: T12, hPD-L1_ECD.His point mutant P24A (human, UniProt Q9NZQ7 19-238)
T12 construct: extracellular domain
T12 sequence (Q9NZQ7 19-238 P24A): as the sequence (Q9NZQ7 19-238 E205A) above, with P6A, A187E counted along it
Method in brief: as §1

[13] = biological target: T13, hPD-L1_ECD.His point mutant H69A (human, UniProt Q9NZQ7 19-238)
T13 construct: extracellular domain
T13 sequence (Q9NZQ7 19-238 H69A): as the sequence (Q9NZQ7 19-238 E205A) above, with H51A, A187E counted along it
Method in brief: as §1

[14] = biological target: T14, hPD-L1_ECD.His point mutant V23A (human, UniProt Q9NZQ7 19-238)
T14 construct: extracellular domain
T14 sequence (Q9NZQ7 19-238 V23A): as the sequence (Q9NZQ7 19-238 E205A) above, with V5A, A187E counted along it
Method in brief: as §1

[15] = biological target: T15, hPD-L1_ECD.His point mutant Y28A (human, UniProt Q9NZQ7 19-238)
T15 construct: extracellular domain
T15 sequence (Q9NZQ7 19-238 Y28A): as the sequence (Q9NZQ7 19-238 E205A) above, with Y10A, A187E counted along it
Method in brief: as §1

[16] = biological target: T16, hPD-L1_ECD.His point mutant D90A (human, UniProt Q9NZQ7 19-238)
T16 construct: extracellular domain
T16 sequence (Q9NZQ7 19-238 D90A): as the sequence (Q9NZQ7 19-238 E205A) above, with D72A, A187E counted along it
Method in brief: as §1

[17] = biological target: T17, hPD-L1_ECD.His point mutant L231A (human, UniProt Q9NZQ7 19-238)
T17 construct: extracellular domain
T17 sequence (Q9NZQ7 19-238 L231A): as the sequence (Q9NZQ7 19-238 E205A) above, with A187E, L213A counted along it
Method in brief: as §1

[18] = biological target: T18, hPD-L1_ECD.His point mutant T102A (human, UniProt Q9NZQ7 19-238)
T18 construct: extracellular domain
T18 sequence (Q9NZQ7 19-238 T102A): as the sequence (Q9NZQ7 19-238 E205A) above, with T84A, A187E counted along it
Method in brief: as §1

[19] = biological target: T19, hPD-L1_ECD.His point mutant G159A (human, UniProt Q9NZQ7 19-238)
T19 construct: extracellular domain
T19 sequence (Q9NZQ7 19-238 G159A): as the sequence (Q9NZQ7 19-238 E205A) above, with G141A, A187E counted along it
Method in brief: as §1

[20] = biological target: T20, hPD-L1_ECD.His point mutant T37A (human, UniProt Q9NZQ7 19-238)
T20 construct: extracellular domain
T20 sequence (Q9NZQ7 19-238 T37A): as the sequence (Q9NZQ7 19-238 E205A) above, with T19A, A187E counted along it
Method in brief: as §1

[21] = biological target: T21, hPD-L1_ECD.His point mutant E45A (human, UniProt Q9NZQ7 19-238)
T21 construct: extracellular domain
T21 sequence (Q9NZQ7 19-238 E45A): as the sequence (Q9NZQ7 19-238 E205A) above, with E27A, A187E counted along it
Method in brief: as §1

[22] = biological target: T22, hPD-L1_ECD.His point mutant Q83A (human, UniProt Q9NZQ7 19-238)
T22 construct: extracellular domain
T22 sequence (Q9NZQ7 19-238 Q83A): as the sequence (Q9NZQ7 19-238 E205A) above, with Q65A, A187E counted along it
Method in brief: as §1

[23] = biological target: T23, hPD-L1_ECD.His point mutant Y56A (human, UniProt Q9NZQ7 19-238)
T23 construct: extracellular domain
T23 sequence (Q9NZQ7 19-238 Y56A): as the sequence (Q9NZQ7 19-238 E205A) above, with Y38A, A187E counted along it
Method in brief: as §1

[24] = biological target: T24, hPD-L1_ECD.His point mutant T201A (human, UniProt Q9NZQ7 19-238)
T24 construct: extracellular domain
T24 sequence (Q9NZQ7 19-238 T201A): as the sequence (Q9NZQ7 19-238 E205A) above, with T183A, A187E counted along it
Method in brief: as §1

[25] = biological target: T25, hPD-L1_ECD.His point mutant D26A (human, UniProt Q9NZQ7 19-238)
T25 construct: extracellular domain
T25 sequence (Q9NZQ7 19-238 D26A): as the sequence (Q9NZQ7 19-238 E205A) above, with D8A, A187E counted along it
Method in brief: as §1

[26] = biological target: T26, hPD-L1_ECD.His point mutant I54A (human, UniProt Q9NZQ7 19-238)
T26 construct: extracellular domain
T26 sequence (Q9NZQ7 19-238 I54A): as the sequence (Q9NZQ7 19-238 E205A) above, with I36A, A187E counted along it
Method in brief: as §1

T1 sequence (Q9NZQ7 19-238 A121G): as the sequence (Q9NZQ7 19-238 E205A) above, with A103G, A187E counted along it

B1: 1.14.4 (antibody, V domains shown)
VH: EVQLLESGGGLVQPGGSLRLSCAASGFTFSSYAMSWVRQAPGKGLEWVSGISGSGGFTYYADSVKGRFTISRDNSKNTLYLQMNSLRAEDTAVYYCAKPPRGYNYGPFDYWGQGTLVTVSS
VL: SYVLTQPPSVSVAPGQTARITCGGNNIGSKSVHWYQQKPGQAPVLVVYDDSDRPSGIPERFSGSNSGNTATLTISRVEAGDEADYYCQVWDSSSDHVVFGGGTKLTVL
notes: Fully human monoclonal antibody with a human constant region of IgG4 isotype
Work on B1 yielded a fold change [1] of 1.15 fold, a fold change [2] of 0.801 fold and a fold change [3] of 0.947 fold. It also gave a fold change [4] of 0.875 fold, a fold change [5] of 0.906 fold and a fold change [6] of 0.332 fold. The fold change [7] was 0.759 fold, the fold change [8] was 0.837 fold and the fold change [9] was 0.788 fold. For the same binder, the fold change [10] was 0.988 fold, the fold change [11] was 1.06 fold and the fold change [12] was 0.907 fold. For the same binder, the fold change [13] was 1.06 fold, the fold change [14] was 0.948 fold and the fold change [15] was 0.842 fold. It also gave a fold change [16] of 0.858 fold, a fold change [17] of 0.838 fold and a fold change [18] of 0.887 fold. For the same binder, the fold change [19] was 0.448 fold, the fold change [20] was 0.569 fold and the fold change [21] was 0.942 fold. The fold change [22] was 0.982 fold, the fold change [23] was 0.84 fold and the fold change [24] was 0.781 fold. It also gave a fold change [25] of 0.963 fold and a fold change [26] of 0.918 fold.
